Where two headings read alike, the source gives them in different places.
Columns and labels:
[1] = molecular target: Recombinant human DSG2 protein (desmoglein 2) (human) (UniProt Q14126); experiment: SPR, DSG2 immobilized; summary table of FIG. 13B
[2] = molecular target: Desmoglein 2 (DSG2) of human cells (human) (UniProt Q14126)
[3] = molecular target: Desmoglein 2 (DSG2) of human cells (human) (UniProt Q14126); remark: listed apart in the source
[4] = molecular target: Recombinant human DSG2 protein (desmoglein 2) (human) (UniProt Q14126); experiment: SPR (BIAcore 3000), recombinant human DSG2 immobilised on CM4 chip, PtDd injected
[5] = molecular target: Desmoglein 2 (DSG2) of human cells (human) (UniProt Q14126); remark: listed apart in the source
[6] = molecular target: Recombinant human DSG2 protein (desmoglein 2) (human) (UniProt Q14126); experiment: SPR, DSG2 immobilised, PtDd injected at 3 mg/ml (so in the source)
[7] = molecular target: Desmoglein 2 (DSG2) of human cells (human) (UniProt Q14126); experiment: cell-based or functional assay
[8] = molecular target: Desmoglein 2 (DSG2) of human cells (human) (UniProt Q14126); experiment: competition of 3H-Ad3 attachment to HeLa cells after pre-incubation with the named protein; the number is the Ad3 still bound (PBS: 512)
[9] = molecular target: Desmoglein 2 (DSG2) of human cells (human) (UniProt Q14126); remark: listed apart in the source
[10] = molecular target: Recombinant human DSG2 protein (desmoglein 2) (human) (UniProt Q14126); experiment: SPR, DSG2 immobilized; summary table of FIG. 13B (no unit in the table, RU from the axis of 13B)
[11] = molecular target: Ad5/3L-GFP chimeric adenovirus vector (human adenovirus serotype 5; human adenovirus serotype 3) (UniProt P11818)
[12] = molecular target: Recombinant human DSG2 protein (desmoglein 2) (human) (UniProt Q14126); experiment: SPR, DSG2 immobilised, Ad3-K/S/Kn injected at 10 mg/ml (so in the source)

Recombinant human DSG2 protein (desmoglein 2) (human), sequence (Q14126 50-609 limits assumed): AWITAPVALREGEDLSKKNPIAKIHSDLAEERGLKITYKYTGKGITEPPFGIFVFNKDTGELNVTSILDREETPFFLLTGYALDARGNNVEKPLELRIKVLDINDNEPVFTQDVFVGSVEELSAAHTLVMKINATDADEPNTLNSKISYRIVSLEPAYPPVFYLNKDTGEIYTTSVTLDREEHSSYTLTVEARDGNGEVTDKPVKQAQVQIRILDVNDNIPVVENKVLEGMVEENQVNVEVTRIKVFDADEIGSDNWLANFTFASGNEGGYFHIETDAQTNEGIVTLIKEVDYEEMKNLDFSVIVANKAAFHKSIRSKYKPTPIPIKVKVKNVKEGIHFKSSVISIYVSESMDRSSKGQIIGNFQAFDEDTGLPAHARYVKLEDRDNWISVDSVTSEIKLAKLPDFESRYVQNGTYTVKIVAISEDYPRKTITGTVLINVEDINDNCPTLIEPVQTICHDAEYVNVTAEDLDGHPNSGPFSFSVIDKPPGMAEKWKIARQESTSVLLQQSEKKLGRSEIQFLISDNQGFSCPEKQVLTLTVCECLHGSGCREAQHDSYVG
Desmoglein 2 (DSG2) of human cells (human), sequence (Q14126 50-1118): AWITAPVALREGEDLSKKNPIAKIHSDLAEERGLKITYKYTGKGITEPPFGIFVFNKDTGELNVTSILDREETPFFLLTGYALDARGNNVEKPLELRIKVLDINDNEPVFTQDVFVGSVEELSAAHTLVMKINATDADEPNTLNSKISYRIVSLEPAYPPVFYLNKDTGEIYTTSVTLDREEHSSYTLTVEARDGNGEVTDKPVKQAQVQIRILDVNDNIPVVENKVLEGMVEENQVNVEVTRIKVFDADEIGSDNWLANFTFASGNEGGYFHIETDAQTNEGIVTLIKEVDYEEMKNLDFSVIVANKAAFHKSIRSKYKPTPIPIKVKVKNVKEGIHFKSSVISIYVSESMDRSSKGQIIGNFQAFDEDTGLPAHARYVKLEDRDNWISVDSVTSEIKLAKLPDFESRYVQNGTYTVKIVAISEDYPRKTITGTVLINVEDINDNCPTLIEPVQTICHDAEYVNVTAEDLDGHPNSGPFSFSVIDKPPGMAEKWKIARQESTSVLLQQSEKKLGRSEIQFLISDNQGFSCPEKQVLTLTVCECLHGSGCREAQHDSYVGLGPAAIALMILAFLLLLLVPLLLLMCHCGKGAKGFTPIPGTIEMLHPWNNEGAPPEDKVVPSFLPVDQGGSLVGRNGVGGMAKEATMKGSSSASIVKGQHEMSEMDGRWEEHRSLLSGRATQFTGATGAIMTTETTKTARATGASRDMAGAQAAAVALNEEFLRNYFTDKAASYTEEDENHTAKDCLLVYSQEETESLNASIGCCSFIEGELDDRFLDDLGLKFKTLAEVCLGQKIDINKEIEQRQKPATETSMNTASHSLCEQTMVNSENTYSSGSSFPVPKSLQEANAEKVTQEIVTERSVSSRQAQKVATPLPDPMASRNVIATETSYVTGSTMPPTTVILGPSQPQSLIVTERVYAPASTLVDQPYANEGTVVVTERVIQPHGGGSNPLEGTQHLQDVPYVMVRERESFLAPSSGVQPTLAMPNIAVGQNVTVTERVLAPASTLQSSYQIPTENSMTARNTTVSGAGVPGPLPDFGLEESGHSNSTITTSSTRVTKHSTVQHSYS
Recombinant human DSG2 protein (desmoglein 2), sequence (Q14126 50-609 limits assumed): as the sequence (Q14126 50-609 limits assumed) above

With “Recombinant Ad3 penton-dodecahedra (PtDd)” the % of remaining binding after 150s [1] was 98%, the IC50 (read off the curve), Ad3-GFP infection of HeLa cells (% of GFP+ cells) [2] was 0.7 µg/mL and the IC50 (read off the curve), Ad3-GFP transduction of HeLa cells (% of GFP+ cells) [3] was 2 µg/mL. The Kd [4] was 2.5 nM, the IC50 (read off the curve), Ad3-GFP transduction of HeLa cells (GFP MFI) [5] was 0.2 µg/mL and the IC50 (read off the curve), Ad5/3L-GFP transduction of HeLa cells (GFP MFI) [5] was 0.5 µg/mL. It also gave an IC50 (read off the curve), Ad5/3S-GFP transduction of HeLa cells (GFP MFI) [5] of 0.2 µg/mL, an SPR response [6] of 100 RU and a Herceptin cytotoxicity on BT474 cells (WST-1 viability) [7] of 2 fold. For the same substance, the Bound 3H-Ad3 VP/cell (with this competitor) [8] was 12 VP/cell, the IC50 (read off the curve), Ad3-GFP transduction of HeLa cells (% of GFP+ cells) [9] was 1 µg/mL and the Binding at the end of association [10] was 133 RU. For the same substance, the Remaining binding after 150s dissociation [10] was 130 RU.
“Recombinant human DSG2 protein (desmoglein 2) (from UniProt Q14126 50-609) (receptor)” showed an IC50 (read off the curve), Ad5/3L-GFP transduction of HeLa cells (GFP MFI) [11] of 1 µg/mL.
Recombinant Ad3 base dodecahedra (BsDd) showed a Bound 3H-Ad3 VP/cell (with this competitor) [8] of 556 VP/cell.
Substance “Ad3-K/S/Kn, junction opener 1 (JO-1) (ligand; other documents disagree on this pair)” has a % of remaining binding after 150s [1] of 85.9%, a Binding at the end of association [10] of 113 RU and a Remaining binding after 150s dissociation [10] of 96.9 RU. It also gave an SPR response [12] of 100 RU.

From patent US20110305634A1
